# Measurements from patent US20220204613A1 (D 10 THERAPEUTICS, published 2022).
# Biological target: T1, human CD47 protein (human, UniProt Q08722 19-139, limits assumed)
# T1 construct: also called human CD47 antigen
# Assay: SPR Biacore, supernatant antibody Fc-captured, human CD47 analyte 5 nM
# Protocol: Production and affinity ranking of humanized antibodies. The designed plasmids of heavy chain and light chain were sent for 3 mL transfection following GenScript's SOP. For affinity ranking, Antibodies were captured on the sensor chip through Fc capture method. Human CD47 protein was used as the analyte. The surface was regenerated before the injection of another antibody. The process was repeated until all antibodies were analyzed. The off-rates of antibodies were obtained from fitting the experimental data locally to 1:1 interaction model using the Biacore® T200/8K evaluation software. The antibodies were ranked by their dissociation rate constants (off-rates, kd).
# T1 sequence (Q08722 19-139 limits assumed): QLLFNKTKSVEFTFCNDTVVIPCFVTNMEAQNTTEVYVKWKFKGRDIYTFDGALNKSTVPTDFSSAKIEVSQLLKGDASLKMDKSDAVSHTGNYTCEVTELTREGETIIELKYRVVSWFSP
Binder,Kd [nM],koff [s⁻¹],kon [M⁻¹ s⁻¹]
"VH2+VL2 (antibody, human IgG4 S228P, kappa, V domains shown, Humanized IgG, hIgG4 CH (S228P) and human kappa CL; leader residues 1-19 of each entry left out; Tested from supernatant; also called U0959FD090-VH2 + U0959FD090-VL2) VH: QVQLVQSGAEVKKPGASVKVSCKASGYTFTSSVIHWVRQAPGQGLEWLGYINPYSDGTKFNEKCKIRATMTSDTSISTAYMELSRLRSDDTAVYYCARGLIGTRYDSWFAYWGQGTLVTVSS VL: DIQMTQSPSSLSASVGDRVTITCRTSQDINNYLNWYQQKPGKAVKLLIYYTSRLHSGVPSRFSGSGSGTDFTFTISSLQPEDIATYFCQQGNTLPYTFGGGTKVEIKR",0.698,0.00413,5.92e+06
"VH1+VL1 (antibody, human IgG4 S228P, kappa, V domains shown, Humanized IgG, hIgG4 CH (S228P) and human kappa CL; Tested from supernatant; also called U0959FD090-VH1 + U0959FD090-VL1) VH: QVQLVQSGAEVKKPGASVKVSCKASGYTFTSSVIHWVRQAPGQGLEWMGYINPYSDGTKFNEKCKIRVTMTRDTSISTAYMELSRLRSDDTAVYYCARGLIGTRYDSWFAYWGQGTLVTVSS VL: DIQMTQSPSSLSASVGDRVTITCRTSQDINNYLNWYQQKPGKAPKLLIYYTSRLHSGVPSRFSGSGSGTDFTFTISSLQPEDIATYYCQQGNTLPYTFGGGTKVEIKR",0.412,0.0021,5.1e+06
"VH1+VL2 (antibody, human IgG4 S228P, kappa, V domains shown, Humanized IgG, hIgG4 CH (S228P) and human kappa CL; leader residues 1-19 of each entry left out; Tested from supernatant; also called U0959FD090-VH1 + U0959FD090-VL2) VH: QVQLVQSGAEVKKPGASVKVSCKASGYTFTSSVIHWVRQAPGQGLEWMGYINPYSDGTKFNEKCKIRVTMTRDTSISTAYMELSRLRSDDTAVYYCARGLIGTRYDSWFAYWGQGTLVTVSS VL: DIQMTQSPSSLSASVGDRVTITCRTSQDINNYLNWYQQKPGKAVKLLIYYTSRLHSGVPSRFSGSGSGTDFTFTISSLQPEDIATYFCQQGNTLPYTFGGGTKVEIKR",0.368,0.00159,4.32e+06
"VH1+VL3 (antibody, human IgG4 S228P, kappa, V domains shown, Humanized IgG, hIgG4 CH (S228P) and human kappa CL; leader residues 1-19 of each entry left out; Tested from supernatant; also called U0959FD090-VH1 + U0959FD090-VL3) VH: QVQLVQSGAEVKKPGASVKVSCKASGYTFTSSVIHWVRQAPGQGLEWMGYINPYSDGTKFNEKCKIRVTMTRDTSISTAYMELSRLRSDDTAVYYCARGLIGTRYDSWFAYWGQGTLVTVSS VL: DIQMTQSPSSLSASVGDRVTITCRTSQDINNYLNWYQQKPGKAVKLLIYYTSRLHSGVPSRFSGSGSGTDYTFTISSLQPEDIATYFCQQGNTLPYTFGGGTKVEIKR",0.274,0.00137,5e+06
"VH1+VL4 (antibody, human IgG4 S228P, kappa, V domains shown, Humanized IgG, hIgG4 CH (S228P) and human kappa CL; leader residues 1-19 of each entry left out; Tested from supernatant; also called U0959FD090-VH1 + U0959FD090-VL4) VH: QVQLVQSGAEVKKPGASVKVSCKASGYTFTSSVIHWVRQAPGQGLEWMGYINPYSDGTKFNEKCKIRVTMTRDTSISTAYMELSRLRSDDTAVYYCARGLIGTRYDSWFAYWGQGTLVTVSS VL: DIQMTQSPSSLSASVGDRVTISCRTSQDINNYLNWYQQKPGKTVKLLIYYTSRLHSGVPSRFSGSGSGTDYTFTISSLQPEDIATYFCQQGNTLPYTFGGGTKVEIKR",0.266,0.00128,4.8e+06
"VH2+VL1 (antibody, human IgG4 S228P, kappa, V domains shown, Humanized IgG, hIgG4 CH (S228P) and human kappa CL; leader residues 1-19 of each entry left out; Tested from supernatant; also called U0959FD090-VH2 + U0959FD090-VL1) VH: QVQLVQSGAEVKKPGASVKVSCKASGYTFTSSVIHWVRQAPGQGLEWLGYINPYSDGTKFNEKCKIRATMTSDTSISTAYMELSRLRSDDTAVYYCARGLIGTRYDSWFAYWGQGTLVTVSS VL: DIQMTQSPSSLSASVGDRVTITCRTSQDINNYLNWYQQKPGKAPKLLIYYTSRLHSGVPSRFSGSGSGTDFTFTISSLQPEDIATYYCQQGNTLPYTFGGGTKVEIKR",1,0.00648,6.47e+06
"VH2+VL3 (antibody, human IgG4 S228P, kappa, V domains shown, Humanized IgG, hIgG4 CH (S228P) and human kappa CL; leader residues 1-19 of each entry left out; Tested from supernatant; also called U0959FD090-VH2 + U0959FD090-VL3) VH: QVQLVQSGAEVKKPGASVKVSCKASGYTFTSSVIHWVRQAPGQGLEWLGYINPYSDGTKFNEKCKIRATMTSDTSISTAYMELSRLRSDDTAVYYCARGLIGTRYDSWFAYWGQGTLVTVSS VL: DIQMTQSPSSLSASVGDRVTITCRTSQDINNYLNWYQQKPGKAVKLLIYYTSRLHSGVPSRFSGSGSGTDYTFTISSLQPEDIATYFCQQGNTLPYTFGGGTKVEIKR",0.597,0.00348,5.83e+06
"VH2+VL4 (antibody, human IgG4 S228P, kappa, V domains shown, Humanized IgG, hIgG4 CH (S228P) and human kappa CL; leader residues 1-19 of each entry left out; Tested from supernatant; also called U0959FD090-VH2 + U0959FD090-VL4) VH: QVQLVQSGAEVKKPGASVKVSCKASGYTFTSSVIHWVRQAPGQGLEWLGYINPYSDGTKFNEKCKIRATMTSDTSISTAYMELSRLRSDDTAVYYCARGLIGTRYDSWFAYWGQGTLVTVSS VL: DIQMTQSPSSLSASVGDRVTISCRTSQDINNYLNWYQQKPGKTVKLLIYYTSRLHSGVPSRFSGSGSGTDYTFTISSLQPEDIATYFCQQGNTLPYTFGGGTKVEIKR",0.585,0.00332,5.67e+06
"VH3+VL1 (antibody, human IgG4 S228P, kappa, V domains shown, Humanized IgG, hIgG4 CH (S228P) and human kappa CL; leader residues 1-19 of each entry left out; Tested from supernatant; also called U0959FD090-VH3 + U0959FD090-VL1) VH: QVQLVQSGAEVKKPGASVKVSCKASGYTFTSSVIHWVKQAPGQGLEWLGYINPYSDGTKFNEKCKIRVTLTSDTSISTAYMELSRLRSDDTAVYYCARGLIGTRYDSWFAYWGQGTLVTVSS VL: DIQMTQSPSSLSASVGDRVTITCRTSQDINNYLNWYQQKPGKAPKLLIYYTSRLHSGVPSRFSGSGSGTDFTFTISSLQPEDIATYYCQQGNTLPYTFGGGTKVEIKR",0.803,0.00553,6.89e+06
"VH3+VL2 (antibody, human IgG4 S228P, kappa, V domains shown, Humanized IgG, hIgG4 CH (S228P) and human kappa CL; leader residues 1-19 of each entry left out; Tested from supernatant; also called U0959FD090-VH3 + U0959FD090-VL2) VH: QVQLVQSGAEVKKPGASVKVSCKASGYTFTSSVIHWVKQAPGQGLEWLGYINPYSDGTKFNEKCKIRVTLTSDTSISTAYMELSRLRSDDTAVYYCARGLIGTRYDSWFAYWGQGTLVTVSS VL: DIQMTQSPSSLSASVGDRVTITCRTSQDINNYLNWYQQKPGKAVKLLIYYTSRLHSGVPSRFSGSGSGTDFTFTISSLQPEDIATYFCQQGNTLPYTFGGGTKVEIKR",0.638,0.00378,5.93e+06
"VH3+VL3 (antibody, human IgG4 S228P, kappa, V domains shown, Humanized IgG, hIgG4 CH (S228P) and human kappa CL; leader residues 1-19 of each entry left out; Tested from supernatant; also called U0959FD090-VH3 + U0959FD090-VL3) VH: QVQLVQSGAEVKKPGASVKVSCKASGYTFTSSVIHWVKQAPGQGLEWLGYINPYSDGTKFNEKCKIRVTLTSDTSISTAYMELSRLRSDDTAVYYCARGLIGTRYDSWFAYWGQGTLVTVSS VL: DIQMTQSPSSLSASVGDRVTITCRTSQDINNYLNWYQQKPGKAVKLLIYYTSRLHSGVPSRFSGSGSGTDYTFTISSLQPEDIATYFCQQGNTLPYTFGGGTKVEIKR",0.602,0.00312,5.18e+06
"VH3+VL4 (antibody, human IgG4 S228P, kappa, V domains shown, Humanized IgG, hIgG4 CH (S228P) and human kappa CL; leader residues 1-19 of each entry left out; Tested from supernatant; also called U0959FD090-VH3 + U0959FD090-VL4) VH: QVQLVQSGAEVKKPGASVKVSCKASGYTFTSSVIHWVKQAPGQGLEWLGYINPYSDGTKFNEKCKIRVTLTSDTSISTAYMELSRLRSDDTAVYYCARGLIGTRYDSWFAYWGQGTLVTVSS VL: DIQMTQSPSSLSASVGDRVTISCRTSQDINNYLNWYQQKPGKTVKLLIYYTSRLHSGVPSRFSGSGSGTDYTFTISSLQPEDIATYFCQQGNTLPYTFGGGTKVEIKR",0.555,0.00305,5.49e+06
"VH4+VL1 (antibody, human IgG4 S228P, kappa, V domains shown, Humanized IgG, hIgG4 CH (S228P) and human kappa CL; leader residues 1-19 of each entry left out; Tested from supernatant; also called U0959FD090-VH4 + U0959FD090-VL1) VH: QVQLVQSGAEVKKPGASVKVSCKASGYTFTSSVIHWVKQAPGQGLEWLGYINPYSDGTKFNEKCKIRATMTSDKSISTAYMELSRLRSDDTAVYYCARGLIGTRYDSWFAYWGQGTLVTVSS VL: DIQMTQSPSSLSASVGDRVTITCRTSQDINNYLNWYQQKPGKAPKLLIYYTSRLHSGVPSRFSGSGSGTDFTFTISSLQPEDIATYYCQQGNTLPYTFGGGTKVEIKR",0.839,0.005,5.96e+06
"VH4+VL2 (antibody, human IgG4 S228P, kappa, V domains shown, Humanized IgG, hIgG4 CH (S228P) and human kappa CL; leader residues 1-19 of each entry left out; Tested from supernatant; also called U0959FD090-VH4 + U0959FD090-VL2) VH: QVQLVQSGAEVKKPGASVKVSCKASGYTFTSSVIHWVKQAPGQGLEWLGYINPYSDGTKFNEKCKIRATMTSDKSISTAYMELSRLRSDDTAVYYCARGLIGTRYDSWFAYWGQGTLVTVSS VL: DIQMTQSPSSLSASVGDRVTITCRTSQDINNYLNWYQQKPGKAVKLLIYYTSRLHSGVPSRFSGSGSGTDFTFTISSLQPEDIATYFCQQGNTLPYTFGGGTKVEIKR",0.772,0.00335,4.34e+06
"VH4+VL3 (antibody, human IgG4 S228P, kappa, V domains shown, Humanized IgG, hIgG4 CH (S228P) and human kappa CL; leader residues 1-19 of each entry left out; Tested from supernatant; also called U0959FD090-VH4 + U0959FD090-VL3) VH: QVQLVQSGAEVKKPGASVKVSCKASGYTFTSSVIHWVKQAPGQGLEWLGYINPYSDGTKFNEKCKIRATMTSDKSISTAYMELSRLRSDDTAVYYCARGLIGTRYDSWFAYWGQGTLVTVSS VL: DIQMTQSPSSLSASVGDRVTITCRTSQDINNYLNWYQQKPGKAVKLLIYYTSRLHSGVPSRFSGSGSGTDYTFTISSLQPEDIATYFCQQGNTLPYTFGGGTKVEIKR",0.591,0.00287,4.85e+06
"VH4+VL4 (antibody, human IgG4 S228P, kappa, V domains shown, Humanized IgG, hIgG4 CH (S228P) and human kappa CL; leader residues 1-19 of each entry left out; Tested from supernatant; also called U0959FD090-VH4 + U0959FD090-VL4) VH: QVQLVQSGAEVKKPGASVKVSCKASGYTFTSSVIHWVKQAPGQGLEWLGYINPYSDGTKFNEKCKIRATMTSDKSISTAYMELSRLRSDDTAVYYCARGLIGTRYDSWFAYWGQGTLVTVSS VL: DIQMTQSPSSLSASVGDRVTISCRTSQDINNYLNWYQQKPGKTVKLLIYYTSRLHSGVPSRFSGSGSGTDYTFTISSLQPEDIATYFCQQGNTLPYTFGGGTKVEIKR",0.553,0.00278,5.02e+06
"chimeric-VH-PTM1+VL-1 (antibody, human IgG4 S228P, V domains shown, Heavy chain with hIgG4 CH (S228P); Light chain: mouse VL-1 with a human constant region; Tested from supernatant; also called U0959FD090-chimeric-VH-PTM1 with 32G8H6 VL-1) VH: EVQLQQSGPELVKPGASVKLSCKASGYTFTSSVIHWVKQKPGQGLEWLGYINPYSEGTKFNEKSKIKATLTSDKSSSTAYMELSSLTSEDSAVYYCARGLIGTRYDSWFAYWGQGTLVTVSA VL: DIQMTQNGSSLSASLGDRVTISCRTSQDINNYLNWYQQKQDGTVKLLIYYTSRLHSGVPSRFSGSGSGTDYSLTIRNLEQEDIATYFCQQGNTLPYTFGGGTKLEIK",0.292,0.00215,7.36e+06
"chimeric-VH-PTM2+VL-1 (antibody, human IgG4 S228P, V domains shown, Heavy chain with hIgG4 CH (S228P); Light chain: mouse VL-1 with a human constant region; Tested from supernatant; also called U0959FD090-chimeric-VH-PTM2 with 32G8H6 VL-1) VH: EVQLQQSGPELVKPGASVKLSCKASGYTFTSSVIHWVKQKPGQGLEWLGYINPYSDATKFNEKSKIKATLTSDKSSSTAYMELSSLTSEDSAVYYCARGLIGTRYDSWFAYWGQGTLVTVSA VL: DIQMTQNGSSLSASLGDRVTISCRTSQDINNYLNWYQQKQDGTVKLLIYYTSRLHSGVPSRFSGSGSGTDYSLTIRNLEQEDIATYFCQQGNTLPYTFGGGTKLEIK",0.488,0.00442,9.06e+06
